In article PMC12872393 (Life Science Alliance, 2026):
No end group written: not given here. AF488 = AF Dye 488 fluorescent label

Tests used:
[1] = target: T1, monomeric GATE16 (mGATE16) (UniProt P60520 1-117); assay: fluorescence polarisation; competition anisotropy: 1.5 μM mGATE16 with 10 nM labeled ATG4B peptide; increasing unlabeled peptide; 20 mM Tris, 150 mM NaCl, pH 7.5; RT; conditions: both partners purified
T1 construct: GATE16, LC3/GABARAP-family protein, from pGex-4T-2_GATE-16 after thrombin cleavage; source: E. coli BL21 Tuner DE3, purified as GST-GATE16, GST removed with thrombin, SEC
T1 sequence (P60520 whole entry): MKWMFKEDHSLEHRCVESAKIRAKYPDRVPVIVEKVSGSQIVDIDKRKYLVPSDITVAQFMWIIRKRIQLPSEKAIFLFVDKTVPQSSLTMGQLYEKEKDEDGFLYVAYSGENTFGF

His6-GATE16 = target: T2, His6-GATE16 (UniProt P60520 1-117); assay: fluorescence polarisation; direct anisotropy: 10 nM labeled ATG4B peptide with increasing His6-GATE16; 20 mM Tris, 150 mM NaCl, pH 7.5; RT; apparent KD; conditions: both partners purified
T2 construct: GATE16, LC3/GABARAP-family protein; also called monomeric His6-GATE16; His6-tagged GATE16; source: E. coli BL21 Tuner DE3, purified (Ni-NTA, SEC)
T2 sequence (P60520 whole entry): as above

B1: dye-labeled ATG4B LIR peptide (EDEDFEILSL) (peptide)
peptide: AF488-EDEDFEILSL
notes: also called fluorescently labeled ATG4B peptide; labeled ATG4B peptide; source: synthetic peptide (MIT Biopolymers Laboratory, HPLC-purified)
B1: binds [1]; binds (His6-GATE16).
